Test results reported in US6998124 (GlaxoSmithKline, dated 2006).

What was measured:
[1] = target: T1, soluble dimeric erythropoietin receptor (EpoRFc) (human, UniProt P19235 25-250); test: BIAcore, mAb captured on rabbit anti-mouse Fc surface, EpoRFc injected at 0.25-6 ug/ml; soluble dimeric EpoRFc
T1 construct: also called Epo-Rec-Fc; not shown: Fc part
T1 sequence (looked up): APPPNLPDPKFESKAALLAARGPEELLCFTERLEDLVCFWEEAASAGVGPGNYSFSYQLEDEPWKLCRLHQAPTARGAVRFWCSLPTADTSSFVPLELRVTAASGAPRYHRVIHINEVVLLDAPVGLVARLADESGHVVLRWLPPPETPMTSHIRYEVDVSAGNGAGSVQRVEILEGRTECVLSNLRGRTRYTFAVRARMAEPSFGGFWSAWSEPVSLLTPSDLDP
Method: (§1) EpoR or EpoRFc diluted in HBS buffer at 0.25–6 ug/ml was then injected for 120 s followed by buffer flow for 240 s and regeneration of the sensor chip surface with an injection of 15 ul 0.1 M phosphoric acid. BIAcore software was used for association and dissociation-phase analysis.

[2] = target: T1, soluble dimeric erythropoietin receptor …; test: BIAcore, calculated from kass and kdiss; soluble dimeric EpoRFc
Method: as §1

[3] = target: T2, human erythropoietin receptor on the cell surface (human, UniProt P19235 25-508); test: competition with 1 nM 125I-labeled Epo for binding to UT7-Epo cells, 5 hrs at 4 C, cell-bound radioactivity counted; blocked ligand: Epo
T2 construct: whole, on cells; also called wild type EpoR on UT7-Epo cells; cell surface erythropoietin receptors
T2 sequence (looked up): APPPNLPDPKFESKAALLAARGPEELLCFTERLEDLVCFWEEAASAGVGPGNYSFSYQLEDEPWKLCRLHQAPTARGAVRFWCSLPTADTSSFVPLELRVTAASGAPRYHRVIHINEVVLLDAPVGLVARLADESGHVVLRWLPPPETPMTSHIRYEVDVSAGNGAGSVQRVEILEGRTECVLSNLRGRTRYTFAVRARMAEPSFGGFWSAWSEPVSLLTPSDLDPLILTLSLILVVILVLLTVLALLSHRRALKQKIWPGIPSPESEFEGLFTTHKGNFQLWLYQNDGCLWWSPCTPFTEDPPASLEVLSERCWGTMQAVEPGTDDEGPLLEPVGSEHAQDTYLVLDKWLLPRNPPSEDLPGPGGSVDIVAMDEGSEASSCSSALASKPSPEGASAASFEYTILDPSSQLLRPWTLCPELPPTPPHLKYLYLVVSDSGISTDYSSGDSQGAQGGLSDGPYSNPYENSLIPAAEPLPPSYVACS
Method: Following 5 hrs incubation at 4° C., the cells were spun through horse serum, frozen, and the pellets clipped off and radioactivity counted. […] Hematocrit was measured following a single i.v. dose of Hz3G9 at 0.1, 0.5, 1 and 5 mg/kg into cynomolgus macaques.

koff [1]: 0.0019 s⁻¹ | kon [1]: 3e+06 M⁻¹ s⁻¹ | Kd [2]: 0.6 nM | IC50 (read off the curve) [3]: ~1 ng/mL
B1: murine monoclonal antibody 3G9 (antibody, V domains shown)
VH: QVQLQQPGAELVKSGASVKLSCKASGSTFTSYWMHWVKQRPGRGLEWIGRIDPNSGGTKDNEKFKSKATLTVDKPSSTAYMQLSSLTSEDSAVYYCARETYYDSSFAYWGQGTLVTVSA
VL: DIVMTQSQKFMSTSVGDRVSVTCKASQNVGTNVAWYQQKPGQSPKALIYSASYRYSGVPDRFTGSGSGTDFTLTISNVQSEDLAEYFCQQYNSYPLTFGAGTKLELKR
modifications: amino terminus of the heavy chain blocked with pyroglutamic acid
notes: Mouse hybridoma antibody; also called 3G9 mAb; Mab 3G9
